According to patent US20110257890A1 (IMMATICS BIOTECHNOLOGIES, published 2011):

Molecular target: T1, recombinant HLA-A*2402 molecules lacking the transmembrane domain (human, biotinylated at the carboxy terminus of the heavy chain)
T1 construct: Loaded with the peptide in question; used on streptavidin beads (aAPC) and as PE- or APC-coupled multimers
Assay: peptide-loaded recombinant HLA-A*2402 on beads for T-cell priming, read out with A*2402 multimers

Binder	binding result
HYKPTPLYF [SMC4-001]	binds
VYTTSYQQI [NFYB-001]	binds
RYLWATVTI [ASPM-001]	binds
QYASRFVQL [PLK4-001]	binds
TYGNLLDYL [ABL1-001]	binds
AYAIIKEEL [ATAD2-001]	binds
FYISPVNKL [AVL9-001]	binds
KYNDTFWKEF [HSP90B1-001]	binds
NYEETFPHI [MUC6-001]	binds
VYGIRLEHF [NUF2-001]	binds
RFLSGIINF [NUF2-002]	binds
AYLVYTDRL [PPAP2C-001]	binds
VFDTAIAHLF [SIAH2-001]	binds
YYNAAGFNKL [UQCRB-001]	binds
VYKVVGNLL [IQGAP3-001]	binds
VYIEKNDKL [ERBB3-001]	binds
LYQILQGIVF (also called TUMAP encoded by CDK1) [CDC2-001]	binds
SYNPLWLRI [ASPM-002]	binds
VFIFKGNQF [MMP3-001]	binds
SYIDVLPEF [MET-006]	binds
NYLPFIMEL [UCHL5-001]	binds
NYLLYVSNF [MST1R-001]	binds
IYNGKLFDLL [KIF2C-001]	binds
